Measurements taken from patent US20120276091A1 (HANWHA CHEMICAL, published 2012).

Key:
[1] = biological target: T1, recombinant human VCAM-1 domain 1-7/Fc chimera (R&D, 862-VC) (human, UniProt P19320 25-698); assay: BIACORE (SPR), VCAM1/Fc immobilised on CM5 chip, antibody as analyte, 1:1 binding model
T1 construct: domain: D1-D7; Bought; also called VD7; hVCAM-Fc-chimera; not shown: Fc of the bought chimera
T1 sequence (looked up): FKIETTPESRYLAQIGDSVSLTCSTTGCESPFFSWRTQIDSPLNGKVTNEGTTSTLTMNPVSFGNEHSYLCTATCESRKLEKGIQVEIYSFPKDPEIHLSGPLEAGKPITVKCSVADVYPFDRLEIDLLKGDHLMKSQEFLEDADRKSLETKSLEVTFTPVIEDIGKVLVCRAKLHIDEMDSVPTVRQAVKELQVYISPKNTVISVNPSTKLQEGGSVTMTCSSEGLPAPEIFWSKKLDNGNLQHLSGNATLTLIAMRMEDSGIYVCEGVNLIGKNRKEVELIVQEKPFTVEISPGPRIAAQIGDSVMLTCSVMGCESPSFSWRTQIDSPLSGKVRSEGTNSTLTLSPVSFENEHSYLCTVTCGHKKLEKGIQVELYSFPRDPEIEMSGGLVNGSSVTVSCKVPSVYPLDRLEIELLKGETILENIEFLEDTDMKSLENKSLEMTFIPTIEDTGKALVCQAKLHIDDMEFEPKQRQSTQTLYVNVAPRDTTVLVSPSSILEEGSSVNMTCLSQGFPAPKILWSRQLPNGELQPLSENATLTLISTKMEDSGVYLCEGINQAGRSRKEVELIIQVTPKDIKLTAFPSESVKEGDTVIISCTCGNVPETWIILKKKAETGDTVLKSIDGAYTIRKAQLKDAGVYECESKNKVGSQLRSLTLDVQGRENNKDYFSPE
Experimental: (§1) Journal of Bioscience and Bioengineering Vol. 100, No. 3, 311-317, 2005).
(§2) For ligand immobilization to the sensor chip CM5, the chip should be first activated with a mixture of N-hydroxysuccinimide (NHS) and […] (Amine Coupling Kit, BR-1000-50) to prepare a NHS-ester-activated chip surface being highly reactive to amino group. 1 mg/ml of ligand to be immobilized was diluted in 97 μl of each sodium acetate solution (vary within the pH range from 4.0 to 5.5) at a dilution ratio of 3/100, and then applied at a flow rate of 10 μl/min for about 3 min (as a negative control, the ligand was diluted using a running buffer, HBS-EP buffer (BIACORE AB, Sweden) in the same manner). In order to immobilize the ligand at a predetermined value target RU (resonance unit), serial injection was carried out automatically, until reaching target RU. […] The final RU was determined by an immobilization report which provides a difference in RU values before and after injection of ethanolamine.
(§3) A flow cell 2-flow cell 1 mode provided by BIACORE instrument was employed in this experiment in order to remove non-specific binding. […] Through this procedure, an association/dissociation curve of the corresponding antigen and antibody was obtained, and an association/dissociation constant KD was calculated by BIAevaluation program (BIACORE AB, Sweden), as shown in FIG. 3.

[2] = biological target: T1, recombinant human VCAM-1 domain 1-7/Fc …; assay: BIACORE (SPR), recombinant VCAM1/Fc immobilised on sensor chip CM5, antibody as analyte, 1:1 binding model
Experimental: as §1, §2, §3

B1: 7HT antibody (VCAM-1 antibody, VCAM-1 Ab) (antibody, V domains shown)
VH: EVQLVQSGGDLVKPGESLRLSCAASGFTFNDAWMTWVRQPPGKGLEWVGRIKSTTDGGTTNYAAPVEGRFTISRDDSKNTLYLEMNSLRAEDTAVYYCARIPLFNHDSGGYHGAFDIWGQGTMVTVSS
VL: DIQMTQSPSSLAVSLGERATINCKSSQSVLYSSNNKNYLAWYQQKPGQPPKLLIYWASTRESGVPDRFSGSGSGTDFTLTISSLQPEDFASYYCQESYSAPYTFGQGTKVEIKR
notes: Human antibody, full IgG; also called VCAM-1 Ab (7HT); 7HT Ab
Which results are given for B1?
Kd [1]: ~6.3 nM; koff [2]: 0.00176 s⁻¹; kon [2]: 279000 M⁻¹ s⁻¹
